The text below walks through data of paper PMC11960800 (The FASEB Journal, 2025).

Common to all, as to assay: SPR
(In general: SPR reads the build-up and loss of mass on a sensor chip optically.)

Test [1] has as its target latent TGF‐β binding protein‐4, short isoform (LTBP4S), recombinant full-length human (human).
Test [2] addresses T1, fibulin‐4 (FBLN4), recombinant full-length human (human, UniProt O95967 24-443).
T1 sequence (looked up): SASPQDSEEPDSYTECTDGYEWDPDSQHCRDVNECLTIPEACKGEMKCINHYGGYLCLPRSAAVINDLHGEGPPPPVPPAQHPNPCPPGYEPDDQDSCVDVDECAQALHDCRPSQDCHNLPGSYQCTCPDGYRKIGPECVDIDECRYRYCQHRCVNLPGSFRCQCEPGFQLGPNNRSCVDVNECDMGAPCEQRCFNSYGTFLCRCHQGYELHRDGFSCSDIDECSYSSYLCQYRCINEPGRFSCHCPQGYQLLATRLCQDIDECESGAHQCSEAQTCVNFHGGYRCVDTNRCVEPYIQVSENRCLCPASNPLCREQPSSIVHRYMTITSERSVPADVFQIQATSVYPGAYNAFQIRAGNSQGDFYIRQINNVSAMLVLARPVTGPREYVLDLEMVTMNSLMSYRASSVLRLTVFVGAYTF

For test [3], the target named is latent TGF‐β binding protein‐4, long isoform (LTBP4L), recombinant full-length human (human, UniProt Q8N2S1-1 28-1624).

“recombinant syndecan-3 ectodomain (SDC3‐ED) (from UniProt O75056 48-387) (domain or fragment)”: the koff in test [1] turned out to be 6.3e-05 s⁻¹.

B1: recombinant syndecan-3 ectodomain (SDC3‐ED) (domain or fragment, human, UniProt O75056 48-387, looked up)
chain: QRWRSENFERPVDLEGSGDDDSFPDDELDDLYSGSGSGYFEQESGIETAMRFSPDVALAVSTTPAVLPTTNIQPVGTPFEELPSERPTLEPATSPLVVTEVPEEPSQRATTVSTTMATTAATSTGDPTVATVPATVATATPSTPAAPPFTATTAVIRTTGVRRLLPLPLTTVATARATTPEAPSPPTTAAVLDTEAPTPRLVSTATSRPRALPRPATTQEPDIPERSTLPLGTTAPGPTEVAQTPTPETFLTTIRDEPEVPVSGGPSGDFELPEEETTQPDTANEVVAVGGAAAKASSPPGTLPKGARPGPGLLDNAIDSGSSAAQLPQKSILERKEVLV
B1: the dissociation rate constant (koff) in test [2] stood at 0.00082 s⁻¹; in test [3], 5.5e-05 s⁻¹.

B2: recombinant syndecan-2 ectodomain (SDC2‐ED) (domain or fragment, human, UniProt P34741 19-144, looked up)
chain: ESRAELTSDKDMYLDNSSIEEASGVYPIDDDDYASASGSGADEDVESPELTTSRPLPKILLTSAAPKVETTTLNIQNKIPAQTKSPEETDKEKVHLSDSERKMDPAEEDTNVYTEKHSDSLFKRTE
As to B2, the koff in test [2] amounted to 0.00041 s⁻¹.

As usually defined, the koff is the rate constant with which the complex falls apart.
